The results in this text go back to PMC4258114.

This series has as its system SaiR-His6 (Bacillus anthracis str. Sterne 7702). The experiment in a line: restriction enzyme.

In turn, “spxA2 SaiR site 1 wild-type (oMN14-666/oMN14-667)” came in with a K half of 6 nM.
